The values that follow come from the Immune Epitope Database (IEDB).

Test [1] concerns the target HLA-A*02:01. The experiment in a line: IEDB peptide-MHC binding, purified MHC/competitive/fluorescence; filed as Kd, often an IC50 or EC50 that approximates it; ≥ and ≤ were set here for values at or beyond the usual limits of such assays.
For the next test, the target named is HLA-A*02:03. The test is described as above.
For a further test, the target named is HLA-A*02:11. The test is described as above.
A further test deals with HLA-A*02:12. The description is as above.
In another test the target is HLA-A*02:16. The description is as above.
The target in a further test is HLA-A*02:19. The test is described as above.
The target of another test is HLA-A*03:01. Described as above.
The target in another test is HLA-A*26:01. The test is described as above.
A further test has as its target HLA-A*29:02. The test is described as above.
The next test concerns the target HLA-A*68:02. Described as above.
The next test deals with HLA-A*69:01. Described as above.
Another test deals with HLA-B*15:01. The description is as above.
A further test deals with HLA-B*18:01. The test is described as above.
Another test addresses HLA-B*27:03. Described as above.
The target in a further test is HLA-B*39:01. The description is as above.
The next test deals with HLA-B*46:01. The test is described as above.
The target in the next test is HLA-B*51:01. The test is described as above.
The target in a further test is HLA-B*57:01. Described as above.
The target of another test is HLA-A*24:03. Described as above.
In test [2] the target is HLA-A*02:01. Put plainly: IEDB peptide-MHC binding, purified MHC/direct/fluorescence; filed as Kd, often an IC50 or EC50 that approximates it; ≥ and ≤ were set here for values at or beyond the usual limits of such assays. To be noted: source organism: Human herpesvirus 4 strain B95-8.
Another test concerns the target HLA-A*32:15. Put plainly: IEDB peptide-MHC binding, purified MHC/competitive/fluorescence; filed as Kd, often an IC50 or EC50 that approximates it; ≥ and ≤ were set here for values at or beyond the usual limits of such assays. To be noted: source organism: human gammaherpesvirus 4.
Another test has as its target HLA-A*68:23. The test is described as above.
Another test has as its target HLA-B*15:42. The test is described as above.
In another test the target is HLA-B*45:06. The test is described as above.
The target in the next test is HLA-B*83:01. Described as above.
The target of a further test is HLA-C*05:01. Put plainly: IEDB peptide-MHC binding, purified MHC/direct/fluorescence; filed as Kd, often an IC50 or EC50 that approximates it; ≥ and ≤ were set here for values at or beyond the usual limits of such assays. Particulars: source organism: Vibrio antiquarius.
A further test has as its target HLA-C*06:02. The test is described as above. Particulars: source organism: Vibrio antiquarius.
Another test addresses HLA-B*58:01. The experiment in a line: IEDB peptide-MHC binding, purified MHC/competitive/fluorescence; filed as Kd, often an IC50 or EC50 that approximates it; ≥ and ≤ were set here for values at or beyond the usual limits of such assays.
The next test addresses HLA-A*23:01. The description is as above.
For the next test, the target named is HLA-B*15:17. The description is as above. To be noted: source organism: Entamoeba histolytica HM-1:IMSS.
In a further test the target is HLA-A*01:01. The experiment in a line: IEDB peptide-MHC binding, purified MHC/direct/fluorescence; filed as Kd, often an IC50 or EC50 that approximates it; ≥ and ≤ were set here for values at or beyond the usual limits of such assays. To be noted: source organism: Giardia lamblia ATCC 50803.
The target in another test is HLA-C*08:02. Described as above. To be noted: source organism: Giardia lamblia ATCC 50803.
Another test concerns the target HLA-C*04:01. Put plainly: IEDB peptide-MHC binding, purified MHC/competitive/fluorescence; filed as Kd, often an IC50 or EC50 that approximates it; ≥ and ≤ were set here for values at or beyond the usual limits of such assays. Particulars: source organism: Giardia lamblia ATCC 50803.
Where [3] appears, read: source organism: Vibrio cholerae 2740-80.
Setting [4] is: source organism: Mycobacterium tuberculosis variant bovis BCG str. Pasteur 1173P2.
[5] abbreviates: source organism: human gammaherpesvirus 4.
[6] abbreviates: source organism: Vibrio antiquarius.
The mark [7] stands for this setting: source organism: Entamoeba histolytica HM-1:IMSS.
Where [8] appears, read: source organism: Giardia lamblia ATCC 50803.
[9] abbreviates: source organism: Human herpesvirus 4 strain B95-8.

In general, Kd refers to a measure of binding affinity in units of concentration. Consider CERYGFPAS, for which the Kd with HLA-A*02:01 [1] (setting [3]), with HLA-A*02:03 (setting [3]), with HLA-A*02:11 (setting [3]), with HLA-A*02:12 (setting [3]), in the test with HLA-A*02:16 (setting [3]) and with HLA-A*02:19 (setting [3]) was at least 20 µM in each case. The dissociation constant (Kd) in the test with HLA-A*03:01 (setting [3]), with HLA-A*26:01 (setting [3]), in the test with HLA-A*29:02 (setting [3]), with HLA-A*68:02 (setting [3]), with HLA-A*69:01 (setting [3]) and with HLA-B*15:01 (setting [3]) was at least 20 µM each time. Moreover, the Kd in the test with HLA-B*18:01 (setting [3]) is 0.0433 µM; in the test with HLA-B*27:03 (setting [3]), at least 20 µM; with HLA-B*39:01 (setting [3]) it was at least 20 µM; with HLA-B*46:01 (setting [3]), at least 20 µM; with HLA-B*51:01 (setting [3]), at least 20 µM; with HLA-B*57:01 (setting [3]) it was at least 20 µM.
Regarding DEGFHAATV, the equilibrium dissociation constant (Kd) in the test with HLA-A*02:01 [1] (setting [4]), in the test with HLA-A*02:03 (setting [4]), in the test with HLA-A*02:11 (setting [4]), with HLA-A*02:12 (setting [4]), with HLA-A*02:16 (setting [4]) and in the test with HLA-A*02:19 (setting [4]) was at least 20 µM throughout. Further, the dissociation constant (Kd) in the test with HLA-A*03:01 (setting [4]) is at least 20 µM; with HLA-A*24:03 (setting [4]), at least 20 µM; with HLA-A*26:01 (setting [4]), at least 20 µM; with HLA-A*29:02 (setting [4]) it was at least 20 µM; in the test with HLA-B*15:01 (setting [4]), at least 20 µM; with HLA-B*18:01 (setting [4]), 0.0788 µM. Further, the dissociation constant Kd with HLA-B*27:03 (setting [4]), with HLA-B*39:01 (setting [4]), in the test with HLA-B*46:01 (setting [4]) and with HLA-B*57:01 (setting [4]) was at least 20 µM throughout.
For EVFFGLSRY, the Kd in the test with HLA-A*02:01 [2] was at least 10 µM; with HLA-A*32:15, 0.0269 µM; with HLA-A*68:23 (setting [5]) it was at most 0.0001 µM; with HLA-B*15:42 (setting [5]), at least 5 µM; with HLA-B*45:06 (setting [5]) it was at least 5 µM; in the test with HLA-B*83:01 (setting [5]) it was at least 5 µM.
On to FAMTVPLLI, for which the dissociation constant Kd with HLA-C*05:01 was at most 0.001 µM; with HLA-C*06:02 it was 0.026 µM; in the test with HLA-A*02:01 [1] (setting [6]), 0.0027 µM; with HLA-B*15:01 (setting [6]), at least 20 µM; with HLA-B*39:01 (setting [6]), 0.009 µM; in the test with HLA-B*51:01 (setting [6]), 0.126 µM. The same sequence showed an equilibrium dissociation constant (Kd) with HLA-B*58:01 (setting [6]) of 0.0014 µM.
Regarding KVSVGSYFC, the Kd is at least 20 µM in the test with HLA-A*02:01 [1] (setting [7]); at least 20 µM with HLA-A*02:03 (setting [7]); at least 20 µM with HLA-A*02:11 (setting [7]); at least 20 µM with HLA-A*02:12 (setting [7]); 9 µM with HLA-A*02:16 (setting [7]); at least 20 µM in the test with HLA-A*02:19 (setting [7]). Further, the dissociation constant Kd with HLA-A*03:01 (setting [7]), with HLA-A*23:01 (setting [7]), in the test with HLA-A*24:03 (setting [7]), with HLA-A*26:01 (setting [7]), with HLA-A*29:02 (setting [7]) and with HLA-A*68:02 (setting [7]) was at least 20 µM each time. The Kd with HLA-A*69:01 (setting [7]), with HLA-B*15:01 (setting [7]), with HLA-B*15:17, with HLA-B*18:01 (setting [7]), with HLA-B*27:03 (setting [7]) and with HLA-B*39:01 (setting [7]) was at least 20 µM in each case. The Kd with HLA-B*46:01 (setting [7]), in the test with HLA-B*51:01 (setting [7]) and in the test with HLA-B*57:01 (setting [7]) was at least 20 µM in each case.
Regarding MTDVDLNYY, the Kd with HLA-A*01:01 was at most 0.001 µM; with HLA-C*08:02, at least 20 µM; with HLA-A*68:23 (setting [8]), 0.002 µM; with HLA-B*15:42 (setting [8]), at least 5 µM; in the test with HLA-B*45:06 (setting [8]) it was at least 5 µM; in the test with HLA-B*83:01 (setting [8]), at least 5 µM. The same sequence registered a Kd with HLA-C*04:01 of at least 5 µM.
VSFIEFVGW: the Kd with HLA-A*23:01 (setting [9]) is 0.0629 µM; with HLA-B*57:01 (setting [9]) it was 0.0249 µM; with HLA-B*58:01 (setting [9]), 0.0011 µM.
